According to article PMC4157451:

Molecular target: T1, PvuRts1I, Q52612
T1 chain: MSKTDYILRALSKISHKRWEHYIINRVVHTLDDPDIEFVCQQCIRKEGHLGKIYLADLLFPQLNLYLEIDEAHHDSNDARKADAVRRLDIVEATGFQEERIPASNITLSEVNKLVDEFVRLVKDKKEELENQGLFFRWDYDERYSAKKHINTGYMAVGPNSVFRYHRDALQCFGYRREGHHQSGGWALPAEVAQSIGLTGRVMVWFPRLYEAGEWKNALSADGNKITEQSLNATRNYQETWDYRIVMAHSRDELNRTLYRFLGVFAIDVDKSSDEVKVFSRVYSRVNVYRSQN
Assay: SEC; size-exclusion chromatography of purified PvuRts1I; single peak, apparent molecular weight 89 kDa against a theoretical 34 kDa
Settings: remark: other sources report otherwise

- stoichiometry N: 2
B1: PvuRts1I, Q52612 1-293 (enzyme)
chain: MSKTDYILRALSKISHKRWEHYIINRVVHTLDDPDIEFVCQQCIRKEGHLGKIYLADLLFPQLNLYLEIDEAHHDSNDARKADAVRRLDIVEATGFQEERIPASNITLSEVNKLVDEFVRLVKDKKEELENQGLFFRWDYDERYSAKKHINTGYMAVGPNSVFRYHRDALQCFGYRREGHHQSGGWALPAEVAQSIGLTGRVMVWFPRLYEAGEWKNALSADGNKITEQSLNATRNYQETWDYRIVMAHSRDELNRTLYRFLGVFAIDVDKSSDEVKVFSRVYSRVNVYRSQN
